Reference: the supplement of paper PMC7125110
± gives the standard error. For some of these results: Fewer inactive variants are shown than the library holds.

B1: glmS ribozyme (parent)
chain: AUAAAAGCGCCAGAACUACAGAAAUGUAGUUGACGAGGAGGAGGUUUAUCGAAUUUUCGGCGGAUGCCUCCAAA

Key:
Settings in all cases: with glucosamine-6-phosphate
[1] = variants of: B1; assay: kcat; higher = faster cleavage; RNA array
Method in brief: (§1)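 Tiles bearing barcoded ribozyme variants, transcribed in situ by E. coli RNA polymerase on sequenced MiSeq chips, were imaged over ~14 h at 37 °C using a hybridised Cy3 probe. Glucosamine-6-phosphate was supplied at 40 μM to 10 mM in HEPES/KCl/Mg(OAc)2 buffer. kobs came from one- or two-exponential decay fits to normalised per-tile medians, and weighted Michaelis–Menten fits then provided kcat and KM.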

[2] = variants of: B1; assay: self-cleavage kobs at 640 uM GlcN6P; higher = faster cleavage; RNA array
Method in brief: as §1

[3] = variants of: B1; assay: KM; higher = weaker cofactor use; RNA array
Method in brief: as §1

[4] = variants of: B1; assay: self-cleavage kobs at 40 uM GlcN6P; higher = faster cleavage; RNA array
Method in brief: as §1

[5] = variants of: B1; assay: self-cleavage kobs at 160 uM GlcN6P; higher = faster cleavage; RNA array
Method in brief: as §1

[6] = variants of: B1; assay: self-cleavage kobs at 2500 uM GlcN6P; higher = faster cleavage; RNA array
Method in brief: as §1

[7] = variants of: B1; assay: self-cleavage kobs at 10000 uM GlcN6P; higher = faster cleavage; RNA array
Method in brief: as §1

Variant | kcat [1] [s⁻¹] | self-cleavage kobs at 640 uM GlcN6P [2] [s⁻¹] | KM [3] [µM] | self-cleavage kobs at 40 uM GlcN6P [4] [s⁻¹] | self-cleavage kobs at 160 uM GlcN6P [5] [s⁻¹] | self-cleavage kobs at 2500 uM GlcN6P [6] [s⁻¹] | self-cleavage kobs at 10000 uM GlcN6P [7] [s⁻¹]
A14C G51A A53U G59U C68U | 3.12e-05 ± 1.2e-05 | – | – | – | – | – | –
A14C A33U C50U C70A | 3.25e-05 ± 1.4e-05 | 4.2e-05 ± 1.9e-05 | – | – | – | – | –
A14U A15G | 0.0123 ± 0.0018 | 0.00234 ± 0.00043 | 2410 ± 520 | 0.000225 ± 4e-05 | 0.000672 ± 0.00015 | 0.0077 ± 0.0012 | 0.00944 ± 0.0012
A14U A15C | 9.41e-05 ± 8.4e-06 | 3.12e-05 ± 1.3e-05 | 1880 ± 510 | – | – | 5.02e-05 ± 9.3e-06 | 8.11e-05 ± 1.1e-05
A14U G32C C71A | 3.18e-05 ± 4.6e-06 | – | – | < 1e-05 | – | – | 3.33e-05 ± 1.2e-05
A14G C71U | 0.133 ± 0.062 | 0.0171 ± 0.0027 | – | 0.0019 ± 0.00017 | 0.00542 ± 0.00067 | 0.0711 ± 0.027 | 0.112 ± 0.022
A14G G43A | 0.000321 ± 4.1e-05 | 4.36e-05 ± 1.3e-05 | 4730 ± 1200 | < 1e-05 | – | 0.000101 ± 2.2e-05 | 0.000222 ± 3.1e-05
A14C G35C | < 1e-05 | – | – | < 1e-05 | – | – | < 1e-05
A14G C50G | 4.1e-05 ± 7.6e-06 | – | – | – | – | 4.52e-05 ± 2e-05 | –
A14G C50A | 7.1e-05 ± 2e-06 | – | 1890 ± 220 | – | – | 3.98e-05 ± 9.6e-06 | 5.99e-05 ± 7e-06
A14C G44A | 0.000834 ± 0.00022 | – | – | < 1e-05 | – | – | 4.02e-05 ± 1.1e-05
G13U U57A | 2.08e-05 ± 4.9e-06 | – | – | < 1e-05 | – | – | –
A14U U30C | 2.9e-05 ± 1.4e-05 | – | – | – | < 1e-05 | 4.54e-05 ± 1.8e-05 | –
A14U C50G C68A | 7.35e-05 ± 2e-05 | 0.000122 ± 2.5e-05 | – | 5.1e-05 ± 1.3e-05 | – | 7.66e-05 ± 2.9e-05 | 5.56e-05 ± 1.5e-05
A14C G41A | 0.000497 ± 9e-05 | 6.95e-05 ± 1.3e-05 | 3490 ± 1000 | – | 3.59e-05 ± 1.5e-05 | 0.000234 ± 4.5e-05 | 0.000358 ± 6.2e-05
A14C C70G | 0.00014 ± 1.4e-05 | 5.83e-05 ± 7.3e-06 | 866 ± 250 | – | 3.24e-05 ± 1.3e-05 | 9.83e-05 ± 1.1e-05 | 0.000134 ± 1.3e-05
A14C G29U G37U G38A C70A | 5.57e-05 ± 2e-05 | – | – | – | – | 6.04e-05 ± 2.4e-05 | –
A14G A36U | 1.56e-05 ± 2.2e-07 | – | – | < 1e-05 | < 1e-05 | – | –
A14G U65A | 0.0124 ± 0.0022 | 0.00213 ± 0.00035 | 3350 ± 800 | 0.000169 ± 1.9e-05 | 0.000424 ± 8.6e-05 | 0.00492 ± 0.00087 | 0.0094 ± 0.00098
